The record followed here is US20240417433A1 (NANTONG YICHEN BIOPHARMA, published 2024).

Several values for one entry are separate records, joined by “and”; a condition that tells them apart may be missing. Equal values may be shown once.

The target in assay [1] is integrin β7 on human β7-high T cells (human, UniProt P26010 20-798; P13612 34-1032). The experiment in a line: cell-based or functional assay.
In assay [2] the target is Kv1.3 potassium ion channel (UniProt P22001 1-575). The assay is described as follows: cell-based or functional assay.
Kv1.3 potassium ion channel, sequence (P22001 whole entry): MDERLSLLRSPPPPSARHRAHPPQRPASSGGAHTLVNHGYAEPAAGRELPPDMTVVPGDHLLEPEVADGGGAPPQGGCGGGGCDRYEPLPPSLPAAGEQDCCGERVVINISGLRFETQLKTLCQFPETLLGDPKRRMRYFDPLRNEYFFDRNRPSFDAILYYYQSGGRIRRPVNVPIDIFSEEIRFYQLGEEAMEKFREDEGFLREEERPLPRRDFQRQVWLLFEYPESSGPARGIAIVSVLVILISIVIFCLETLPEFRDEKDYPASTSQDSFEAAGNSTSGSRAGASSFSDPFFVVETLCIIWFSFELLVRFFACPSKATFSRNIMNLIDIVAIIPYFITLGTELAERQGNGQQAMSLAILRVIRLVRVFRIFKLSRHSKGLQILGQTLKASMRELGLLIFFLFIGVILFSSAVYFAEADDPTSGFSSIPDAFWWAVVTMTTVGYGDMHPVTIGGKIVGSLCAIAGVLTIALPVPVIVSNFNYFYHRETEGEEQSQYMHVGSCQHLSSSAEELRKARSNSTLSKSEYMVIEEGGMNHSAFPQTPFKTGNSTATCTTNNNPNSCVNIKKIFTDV
A further assay deals with T1, Recombinant protein α4β7 (UniProt P13612 34-977; P26010 20-723).
T1 construct: Coated on the ELISA plate at 100 ng per well; also called integrin β7
T1 sequence (P13612 34-977, chain 1 of 2): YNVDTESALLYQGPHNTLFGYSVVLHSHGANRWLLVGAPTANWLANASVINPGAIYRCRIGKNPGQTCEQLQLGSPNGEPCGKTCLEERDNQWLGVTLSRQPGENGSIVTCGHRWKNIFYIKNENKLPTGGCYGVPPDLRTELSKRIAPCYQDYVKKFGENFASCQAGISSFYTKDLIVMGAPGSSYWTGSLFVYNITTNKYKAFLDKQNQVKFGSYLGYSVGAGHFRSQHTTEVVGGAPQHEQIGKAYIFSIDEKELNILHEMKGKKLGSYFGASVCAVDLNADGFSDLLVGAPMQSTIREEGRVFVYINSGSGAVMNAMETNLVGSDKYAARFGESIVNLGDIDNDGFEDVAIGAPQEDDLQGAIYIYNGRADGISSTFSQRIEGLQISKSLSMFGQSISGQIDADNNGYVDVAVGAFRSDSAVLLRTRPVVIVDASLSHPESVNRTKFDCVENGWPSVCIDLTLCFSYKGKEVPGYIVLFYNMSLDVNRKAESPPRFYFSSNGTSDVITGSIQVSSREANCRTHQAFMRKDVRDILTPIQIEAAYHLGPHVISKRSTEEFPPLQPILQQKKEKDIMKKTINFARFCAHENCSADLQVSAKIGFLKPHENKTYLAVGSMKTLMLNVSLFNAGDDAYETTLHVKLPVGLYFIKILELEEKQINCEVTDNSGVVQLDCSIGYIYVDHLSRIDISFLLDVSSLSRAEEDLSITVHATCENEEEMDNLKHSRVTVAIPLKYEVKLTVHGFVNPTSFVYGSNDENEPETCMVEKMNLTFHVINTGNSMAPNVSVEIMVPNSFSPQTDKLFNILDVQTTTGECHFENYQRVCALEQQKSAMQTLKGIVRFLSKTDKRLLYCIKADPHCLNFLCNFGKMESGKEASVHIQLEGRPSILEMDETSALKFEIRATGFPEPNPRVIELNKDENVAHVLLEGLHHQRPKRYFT
T1 sequence (P26010 20-723, chain 2 of 2): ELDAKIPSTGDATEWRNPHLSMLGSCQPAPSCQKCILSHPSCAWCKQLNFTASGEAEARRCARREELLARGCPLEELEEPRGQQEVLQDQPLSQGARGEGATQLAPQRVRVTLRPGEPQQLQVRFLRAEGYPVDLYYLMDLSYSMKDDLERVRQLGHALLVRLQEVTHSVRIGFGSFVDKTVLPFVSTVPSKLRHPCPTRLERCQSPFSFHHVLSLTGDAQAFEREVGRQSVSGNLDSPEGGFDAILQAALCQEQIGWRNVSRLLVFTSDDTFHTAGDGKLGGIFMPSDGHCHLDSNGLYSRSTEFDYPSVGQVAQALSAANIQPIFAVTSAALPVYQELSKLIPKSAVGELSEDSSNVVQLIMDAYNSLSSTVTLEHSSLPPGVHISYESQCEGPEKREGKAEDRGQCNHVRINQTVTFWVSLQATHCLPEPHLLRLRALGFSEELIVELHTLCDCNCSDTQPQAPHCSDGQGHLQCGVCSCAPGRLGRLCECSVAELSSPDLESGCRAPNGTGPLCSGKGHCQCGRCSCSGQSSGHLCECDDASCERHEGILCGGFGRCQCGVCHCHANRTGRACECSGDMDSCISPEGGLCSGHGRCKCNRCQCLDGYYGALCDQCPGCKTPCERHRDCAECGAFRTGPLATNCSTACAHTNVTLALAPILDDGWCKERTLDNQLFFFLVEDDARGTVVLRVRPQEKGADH
The assay is described as follows: ELISA on coated recombinant α4β7 (100 ng per well).

B1: ATF-H2 (bispecific antibody)
heavy: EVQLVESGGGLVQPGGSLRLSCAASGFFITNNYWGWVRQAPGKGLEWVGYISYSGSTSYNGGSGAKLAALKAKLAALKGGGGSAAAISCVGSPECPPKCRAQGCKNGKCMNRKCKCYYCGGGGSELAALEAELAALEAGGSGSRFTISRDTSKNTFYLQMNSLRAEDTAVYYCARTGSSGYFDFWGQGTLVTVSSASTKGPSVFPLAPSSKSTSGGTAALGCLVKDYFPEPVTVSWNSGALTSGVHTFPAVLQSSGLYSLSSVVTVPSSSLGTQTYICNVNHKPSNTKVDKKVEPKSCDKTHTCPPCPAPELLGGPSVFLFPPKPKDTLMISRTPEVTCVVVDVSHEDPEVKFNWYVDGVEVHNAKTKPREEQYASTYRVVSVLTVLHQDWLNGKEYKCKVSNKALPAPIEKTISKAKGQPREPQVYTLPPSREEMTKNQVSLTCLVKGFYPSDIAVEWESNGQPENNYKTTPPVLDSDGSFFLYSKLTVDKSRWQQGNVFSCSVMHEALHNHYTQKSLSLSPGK
light: DIQMTQSPSSLSASVGDRVTITCRASESVDDLLHWYQQKPGKAPKLLIKYASQSISGVPSRFSGSGSGTDFTLTISSLQPEDFATYYCQQGNSLPNTFGQGTKVEIKRTVAAPSVFIFPPSDEQLKSGTASVVCLLNNFYPREAKVQWKVDNALQSGNSQESVTEQDSKDSTYSLSSTLTLSKADYEKHKVYACEVTHQGLSSPVTKSFNRGEC
notes: The summary says the graft lies between 60N and 65S of heavy chain FR3; also called ATF-H2 (with HCDR2-grafted Vm24)
Usually Kd stands for the equilibrium constant for the complex coming apart. Turning to B1, in assay [1], the “IC50, cell adhesion assay (CellTiter-Glo)” value (“IC50, cell adhesion assay” for short) is 0.072 µg/ml and 0.45 nM. The “IC50, Flipr potassium current fluorescence detection” value in assay [2] came to 0.53 nM. For the same molecule, in the assay with Recombinant protein α4β7, the Kd was determined as 0.0192 nM.

B2: ATF-H3 (bispecific antibody)
heavy: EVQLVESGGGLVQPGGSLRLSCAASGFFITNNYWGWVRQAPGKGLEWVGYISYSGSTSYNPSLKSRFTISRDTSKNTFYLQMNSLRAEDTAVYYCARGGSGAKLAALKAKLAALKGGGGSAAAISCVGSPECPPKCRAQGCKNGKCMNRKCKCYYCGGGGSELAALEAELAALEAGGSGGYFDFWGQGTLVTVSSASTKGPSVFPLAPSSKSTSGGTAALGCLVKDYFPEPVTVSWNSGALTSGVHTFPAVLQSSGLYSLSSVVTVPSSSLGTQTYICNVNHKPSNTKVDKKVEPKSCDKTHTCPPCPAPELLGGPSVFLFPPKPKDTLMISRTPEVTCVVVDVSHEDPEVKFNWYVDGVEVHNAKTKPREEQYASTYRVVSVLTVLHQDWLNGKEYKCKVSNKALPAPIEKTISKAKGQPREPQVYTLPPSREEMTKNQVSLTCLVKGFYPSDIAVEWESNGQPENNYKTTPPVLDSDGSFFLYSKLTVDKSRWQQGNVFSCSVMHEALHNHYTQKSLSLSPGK
light: B1 light
notes: Vm24 with linkers grafted into HCDR3 of etrolizumab; also called ATF-H3 (with HCDR3-grafted Vm24)
B2: the Kd with Recombinant protein α4β7 came out at 13.9 nM.

B3: ATF-H1 (bispecific antibody)
heavy: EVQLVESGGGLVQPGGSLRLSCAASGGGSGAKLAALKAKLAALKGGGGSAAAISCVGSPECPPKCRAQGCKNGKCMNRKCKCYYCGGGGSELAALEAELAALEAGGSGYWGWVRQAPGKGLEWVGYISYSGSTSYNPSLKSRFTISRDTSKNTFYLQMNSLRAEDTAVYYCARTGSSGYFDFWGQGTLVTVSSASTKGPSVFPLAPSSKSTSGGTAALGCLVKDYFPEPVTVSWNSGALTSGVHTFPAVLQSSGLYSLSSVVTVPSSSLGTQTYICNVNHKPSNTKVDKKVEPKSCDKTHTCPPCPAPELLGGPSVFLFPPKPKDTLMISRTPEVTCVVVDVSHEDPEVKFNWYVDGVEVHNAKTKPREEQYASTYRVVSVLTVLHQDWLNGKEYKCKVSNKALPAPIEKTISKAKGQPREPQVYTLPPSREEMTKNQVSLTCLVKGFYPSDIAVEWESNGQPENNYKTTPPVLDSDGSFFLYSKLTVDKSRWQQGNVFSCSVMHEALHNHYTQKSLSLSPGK
light: B1 light
notes: Vm24 with linkers grafted into HCDR1 of etrolizumab; also called ATF-H1 (with HCDR1-grafted Vm24)
Consider B3, for which the “IC50, Flipr potassium current fluorescence detection” value in assay [2] is 0.72 nM. Moreover, in the assay with Recombinant protein α4β7, the binding result was “no binding”.

B4: Etrolizumab (antibody, V domains shown)
VH: EVQLVESGGGLVQPGGSLRLSCAASGFFITNNYWGWVRQAPGKGLEWVGYISYSGSTSYNPSLKSRFTISRDTSKNTFYLQMNSLRAEDTAVYYCARTGSSGYFDFWGQGTLVTVSS
VL: DIQMTQSPSSLSASVGDRVTITCRASESVDDLLHWYQQKPGKAPKLLIKYASQSISGVPSRFSGSGSGTDFTLTISSLQPEDFATYYCQQGNSLPNTFGQGTKVEIKR
On to B4, for which, in assay [1], the “IC50, cell adhesion assay” value is 0.06 µg/ml and 0.42 nM.

B5: ATF-L3 (bispecific antibody)
heavy: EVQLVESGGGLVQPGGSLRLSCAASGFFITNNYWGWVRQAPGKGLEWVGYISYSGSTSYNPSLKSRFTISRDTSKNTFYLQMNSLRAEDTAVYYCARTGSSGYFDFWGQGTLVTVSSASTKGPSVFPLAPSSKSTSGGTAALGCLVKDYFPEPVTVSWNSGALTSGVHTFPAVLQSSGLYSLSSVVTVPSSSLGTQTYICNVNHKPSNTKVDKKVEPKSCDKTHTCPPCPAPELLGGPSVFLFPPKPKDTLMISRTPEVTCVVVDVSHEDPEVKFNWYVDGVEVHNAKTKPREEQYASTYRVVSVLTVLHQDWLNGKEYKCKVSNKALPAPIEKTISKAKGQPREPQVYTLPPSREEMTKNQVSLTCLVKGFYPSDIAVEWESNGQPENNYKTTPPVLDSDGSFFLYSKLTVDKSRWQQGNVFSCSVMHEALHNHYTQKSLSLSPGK
light: DIQMTQSPSSLSASVGDRVTITCRASESVDDLLHWYQQKPGKAPKLLIKYASQSISGVPSRFSGSGSGTDFTLTISSLQPEDFATYYCQQGGGSGAKLAALKAKLAALKGGGGSAAAISCVGSPECPPKCRAQGCKNGKCMNRKCKCYYCGGGGSELAALEAELAALEAGGSGNTFGQGTKVEIKRTVAAPSVFIFPPSDEQLKSGTASVVCLLNNFYPREAKVQWKVDNALQSGNSQESVTEQDSKDSTYSLSSTLTLSKADYEKHKVYACEVTHQGLSSPVTKSFNRGEC
notes: Vm24 with linkers grafted into LCDR3 of etrolizumab; also called ATF-L3 (with LCDR3-grafted Vm24)
As to B5, the Kd in the assay with Recombinant protein α4β7 is 0.0408 nM.

B6: ATF-L1 (bispecific antibody)
heavy: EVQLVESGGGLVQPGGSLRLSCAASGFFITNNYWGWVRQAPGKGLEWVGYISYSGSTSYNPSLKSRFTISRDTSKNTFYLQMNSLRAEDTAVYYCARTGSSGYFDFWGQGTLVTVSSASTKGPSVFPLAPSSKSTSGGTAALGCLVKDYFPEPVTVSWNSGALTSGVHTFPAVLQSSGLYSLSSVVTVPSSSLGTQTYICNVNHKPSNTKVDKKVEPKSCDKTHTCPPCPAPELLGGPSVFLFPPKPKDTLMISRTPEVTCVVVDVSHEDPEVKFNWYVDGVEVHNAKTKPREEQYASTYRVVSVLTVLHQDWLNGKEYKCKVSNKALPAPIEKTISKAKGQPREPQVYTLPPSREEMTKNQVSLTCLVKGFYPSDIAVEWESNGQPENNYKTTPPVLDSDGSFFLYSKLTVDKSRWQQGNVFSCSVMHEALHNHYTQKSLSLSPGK
light: DIQMTQSPSSLSASVGDRVTITCRASESGGSGAKLAALKAKLAALKGGGGSAAAISCVGSPECPPKCRAQGCKNGKCMNRKCKCYYCGGGGSELAALEAELAALEAGGSGLLHWYQQKPGKAPKLLIKYASQSISGVPSRFSGSGSGTDFTLTISSLQPEDFATYYCQQGNSLPNTFGQGTKVEIKRTVAAPSVFIFPPSDEQLKSGTASVVCLLNNFYPREAKVQWKVDNALQSGNSQESVTEQDSKDSTYSLSSTLTLSKADYEKHKVYACEVTHQGLSSPVTKSFNRGEC
Regarding B6, in assay [1], the “IC50, cell adhesion assay” value is 0.173 µg/ml and 1.09 nM. Further, the “IC50, Flipr potassium current fluorescence detection” value in assay [2] worked out at 0.7 nM.

B7: ATF-L2 (bispecific antibody)
heavy: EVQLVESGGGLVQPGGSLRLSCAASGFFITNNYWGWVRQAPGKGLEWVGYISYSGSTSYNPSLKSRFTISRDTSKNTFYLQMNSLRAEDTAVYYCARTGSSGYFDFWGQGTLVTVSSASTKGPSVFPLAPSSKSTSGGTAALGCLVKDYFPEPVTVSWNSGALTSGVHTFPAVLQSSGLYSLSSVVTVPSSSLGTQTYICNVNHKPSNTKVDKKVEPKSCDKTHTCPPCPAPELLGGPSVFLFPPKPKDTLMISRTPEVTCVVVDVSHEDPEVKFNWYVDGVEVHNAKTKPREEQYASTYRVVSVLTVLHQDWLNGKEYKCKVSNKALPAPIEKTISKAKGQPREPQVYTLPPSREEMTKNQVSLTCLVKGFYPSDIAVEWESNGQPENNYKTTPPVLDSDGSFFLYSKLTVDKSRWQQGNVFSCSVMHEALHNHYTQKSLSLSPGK
light: DIQMTQSPSSLSASVGDRVTITCRASESVDDLLHWYQQKPGKAPKLLIKYASQSISGGSGAKLAALKAKLAALKGGGGSAAAISCVGSPECPPKCRAQGCKNGKCMNRKCKCYYCGGGGSELAALEAELAALEAGGSGSRFSGSGSGTDFTLTISSLQPEDFATYYCQQGNSLPNTFGQGTKVEIKRTVAAPSVFIFPPSDEQLKSGTASVVCLLNNFYPREAKVQWKVDNALQSGNSQESVTEQDSKDSTYSLSSTLTLSKADYEKHKVYACEVTHQGLSSPVTKSFNRGEC
notes: The summary says the graft lies between 56S and 60S of light chain FR3; also called ATF-L2 (with LCDR2-grafted Vm24)
B7: in the assay with Recombinant protein α4β7, the Kd was determined as 0.0359 nM.
